In US20100305307A1 (published 2010):

B1: antibody secreted by the hybridoma E1.1 (antibody, V domains shown)
VH: VSGGSINSGDYYWSWIRQHPGKGLDCIGYIYYSGSTYYNPSLKSRVTISVDTSKNQFFLKLTSVTAADTAVYYCARSTVVNPGWFDPWGQGTLVTVSS
VL: TITCQASQDINNYLNWFQQKPGKAPKVLIHDASNLETGGPSRFSGSGSGTDFTFTISGLQPEDIATYYCQQYESLPLTFGGGTKVEIKR
notes: Fully human IgG2 heavy chain with human kappa light chain; they were cloned by PCR between V-region and constant-region primers, so they are probably not full chains

How the values were obtained:
[1] = molecular target: human EGF-r expressed on the surface of human carcinoma cells (A431, SW948) (human) (UniProt P00533); assay: cell-based or functional assay
[2] = molecular target: soluble EGF-r purified from A431 cell membranes (Sigma, E-3641) (human, UniProt P00533 25-1210, limits assumed); assay: BIAcore, solid phase, antigen immobilized on the sensor surface
Experimental: Determination of affinity constants of fully human Mabs by BIAcore: Affinity measurement of purified human monoclonal antibodies, Fab fragments, or hybridoma supernatants by plasmon resonance was carried out using the BIAcore 2000 instrument, using general procedures outlined by the manufacturers.
Based upon the general procedures outlined by the manufacture, kinetic analyses of the antibodies were performed using antigens immobilized onto the sensor surface at a low density. […] The dissociation (kd or koff) and association (ka or kₒₙ) rates were determined using the software provided by the manufacturer (BIA evaluation 2.1).

Molecule | IC50, inhibition of A431 cell proliferation in vitro [1] | Kd [2]
murine monoclonal antibody 528 | 0.66 nM | 
B1 |  | 0.076 nM
